Entries after “also recorded” stand apart in the source; their conditions may differ.
Tested on: 5×FAD mice
Assay: Amyloid plaques in brain of 5×FAD mice after AAV neuronal expression
Format: in vivo, mouse
Experimental: 0-7 months old C57 wild-type mice and AD model mice (5×FAD mice [Tg6799], mice expressing APP and PS1 comprising pathogenic mutations. The expressed APP comprises three mutations: K670N/M671L, I716V, V717I; and PS1 comprises two mutations: M146L, L286V). The mice were given sufficient food and water, and were reared at room temperature with a 12 h/12 h light-dark cycle, and the feeding environment reached the SPF (Specific Pathogen Free) standard.
• a) The brain was taken by perfusion. The mice were perfused at the heart, the blood was washed out with 20 ml PBS, and then the mice were perfused with 20 ml 4% PFA. • b) Fixation and dehydration. The mice were fixed with 4% PFA at 4° C. for 24 hours, and then dehydrated with 30% sucrose at 4° C. • c) Mouse brain slices. After 24 hours of dehydration, the mice brain was cut into slices at a thickness of 40 μm, stored in frozen buffer solution or used for subsequent immunohistochemistry. • d) THS staining. The mouse brain slices were washed three times with ddH2O, 5 minutes each; soaked in 1% THS aqueous solution for 10 minutes; washed twice with 80% ethanol, each time for 3 minutes; washed once with 95% ethanol for 3 minutes. Immunohistochemistry was performed subsequently. If THS staining is not performed, the following immunohistochemistry was performed directly. • e) Immunohistochemistry. The mouse brain slices were washed three times with 1×PBS for 10 minutes each time; the cell membrane was permeated using 0.1% Triton-X100; the brain slices were blocked by using 5% donkey or goat serum; then the primary antibody was incubated at 4° C., shaken overnight (12-16 h); washed three times with 1×PBS for 10 minutes each time; the secondary antibody was incubated, shaken at room temperature for 1-2 h; washed three times with 1×PBS for 10 minutes each time. • f) Patching and sealing. • g) Imaging, 24 hours post sealing. • h) Images were processed and signal density was analyzed by Image J.
Adeno-associated virus AAV-CT (AAV2/9-hSyn-ApoE CT) and AAV-GFP (AAV2/9-hSyn-EGFP-WPRE-pA) expressed in neurons were purchased from Tertu Biotechnology Company.
1 μl of the adeno-associated virus prepared above was injected into the cerebral cortex (x, y, z, +/−1.6, 0, −1) and hippocampus (x, y, z, +/−1.5, −2, −1.5) of 1-month-old mice by using a stereotaxic injection device.
Human APP and PS1 with five fAD mutations are expressed in neurons of 5×FAD mice: K670N/M671L+I716V+V717I mutations in APP and M146L+L286V mutations in PS1 (Oakley et al., 2006). All mice were housed under a 12 h light-dark cycle (light from 8 am to 8 pm) with ad libitum access to food and water. All mouse procedures were performed in accordance with the Guide for the Care and Use of Laboratory Animals of the Chinese Academy of Sciences and the National Institutes of Health.
Mice were anesthetized with isoflurane and perfused with 4% PFA. Dissected mouse brains were fixed overnight in 4% PFA and cryoprotected overnight in 30% sucrose. A cryostat (Leica, CM3050S) was used to obtain frozen brain slices ([…]) from fixed and cryoprotected mouse brains. Floating slices were washed 3 times with ddH2O and then incubated with 1% THS (SIGMA) in water for 5 minutes at room temperature. Next, the slices were washed twice with 80% ethanol and once with 95% ethanol for 3 minutes each. The samples were washed with ddH2O and 3 times with 1×PBS before IHC.
After being deeply anesthetized with isoflurane, mice (5 weeks old) were placed in a stereotaxic apparatus (RWD Instruments). The zero point (x, y, z, 0, 0, 0) is Bregma. Lentivirus (lentivirus-GFP, lentivirus-ApoE and lentivirus-ApoE-IRES-GFP) and AAV (AAV2/9-hSyn-EGFP-WPRE-pA and AAV2/9-hSyn-ApoECT; purchased from Shanghai Taitool Bioscience Co. Ltd.) were injected into the cortex (x, y, z, +/−1.6, 0, −1) or hippocampus (x, y, z, +/−1.5, −2, −1.5), injected 1 ul on each injection site. The mice were then returned to their cages for rehabilitation after surgery.

B1: ApoE CT: C-terminal fragment of ApoE, positions 216-299 of SEQ ID NO: 12; SEQ ID NO: 33 (protein)
chain: ARMEEMGSRTRDRLDEVKEQVAEVRAKLEEQAQQIRLQAEAFQARLKSWFEPLVEDMQRQWAGLVEKVQAAVGTSAAPVPSDNH
average plaque size (AAV at 4 weeks, after 10 weeks, subiculum, vs GFP): significantly reduced | average area of each amyloid plaque (AAV at 4 weeks, six months expression, subiculum, vs GFP): smaller | percentage of total amyloid plaque area (after 10 weeks, subiculum): significantly reduced | plaque density (after 10 weeks, subiculum): significantly reduced | density of amyloid plaques (six months expression): decreases; also recorded: lower | proportion of total area of amyloid plaques (six months expression): smaller proportion | fluorescence intensity of amyloid plaques (six months expression, THS): weaker
